The test system of this data set is CCCCCCCC(=O)Oc1ccc([N+](=O)[O-])cc1. Kind of data set: purified protein. The format is biochemical, Pseudomonas chlororaphis. To be noted: optimal assay conditions (optimum pH 6.0, 50 °C), 0.1-3.0 mmol/L substrate.

As usually defined, the Km is the substrate concentration at which the rate is half of its maximum.

With LIP4 (Pseudomonas chlororaphis), the Michaelis constant (Km) was found to be 333 µM.

Values taken from PMC10003648, “Polymer-Degrading Enzymes of Pseudomonas chloroaphis PA23 Display Broad Substrate Preferences” (International Journal of Molecular Sciences, 2023).
